Experimental data taken from patent US20140087995A1 (published 2014).
Numbered stars: 1 amine (or outer) side, 2 acyl side, 3 side chain; on linkers, the order of the positions; unused ones are H or OH. Bridge positions count the residues as written; N and C are the ends. Square brackets hold non-standard residues; d marks the D form. Side chains are listed from the residue outwards. Ends that are not written are not given here. * marks the point of attachment. C20 diacid = O=C(O)CCCCCCCCCCCCCCCCCCC(=O)*; γGlu = O=C(O)[C@H](CCC(=O)[*:2])N[*:1]

B1: N^ε1-[(4S)-4-carboxy-4-[[(4S)-4-carboxy-4-(19-carboxynonadecanoylamino)butanoyl]amino]butanoyl]-[D-Asp14,Arg17,Pro21,Pro27,Arg35]-h-amylin (peptide)
peptide: K([γGlu-γGlu-C20 diacid])CNTATCATQRLA[dD]FLRHSSPNFGAIPSSTNVGSRTY-NH2
modifications: disulfide 2-7; N-terminus assumed
SMILES: CC[C@H](C)[C@H](NC(=O)[C@H](C)NC(=O)CNC(=O)[C@H](Cc1ccccc1)NC(=O)[C@H](CC(N)=O)NC(=O)[C@@H]1CCCN1C(=O)[C@H](CO)NC(=O)[C@H](CO)NC(=O)[C@H](Cc1c[nH]cn1)NC(=O)[C@H](CCCNC(=N)N)NC(=O)[C@H](CC(C)C)NC(=O)[C@H](Cc1ccccc1)NC(=O)[C@@H](CC(=O)O)NC(=O)[C@H](C)NC(=O)[C@H](CC(C)C)NC(=O)[C@H](CCCNC(=N)N)NC(=O)[C@H](CCC(N)=O)NC(=O)[C@@H](NC(=O)[C@H](C)NC(=O)[C@@H]1CSSC[C@H](NC(=O)[C@@H](N)CCCCNC(=O)CC[C@H](NC(=O)CC[C@H](NC(=O)CCCCCCCCCCCCCCCCCCC(=O)O)C(=O)O)C(=O)O)C(=O)N[C@@H](CC(N)=O)C(=O)N[C@@H]([C@@H](C)O)C(=O)N[C@@H](C)C(=O)N[C@@H]([C@@H](C)O)C(=O)N1)[C@@H](C)O)C(=O)N1CCC[C@H]1C(=O)N[C@@H](CO)C(=O)N[C@@H](CO)C(=O)N[C@H](C(=O)N[C@@H](CC(N)=O)C(=O)N[C@H](C(=O)NCC(=O)N[C@@H](CO)C(=O)N[C@@H](CCCNC(=N)N)C(=O)N[C@H](C(=O)N[C@@H](Cc1ccc(O)cc1)C(N)=O)[C@@H](C)O)C(C)C)[C@@H](C)O
B2: N^ε1-[(4S)-4-carboxy-4-[[(4S)-4-carboxy-4-(19-carboxynonadecanoylamino)butanoyl]amino]butanoyl]-[Glu14,Arg17,Pro21,Pro27,Arg34,Glu35]-h-amylin (peptide)
peptide: K([γGlu-γGlu-C20 diacid])CNTATCATQRLAEFLRHSSPNFGAIPSSTNVGRETY-NH2
modifications: disulfide 2-7; N-terminus assumed
SMILES: CC[C@H](C)[C@H](NC(=O)[C@H](C)NC(=O)CNC(=O)[C@H](Cc1ccccc1)NC(=O)[C@H](CC(N)=O)NC(=O)[C@@H]1CCCN1C(=O)[C@H](CO)NC(=O)[C@H](CO)NC(=O)[C@H](Cc1c[nH]cn1)NC(=O)[C@H](CCCNC(=N)N)NC(=O)[C@H](CC(C)C)NC(=O)[C@H](Cc1ccccc1)NC(=O)[C@H](CCC(=O)O)NC(=O)[C@H](C)NC(=O)[C@H](CC(C)C)NC(=O)[C@H](CCCNC(=N)N)NC(=O)[C@H](CCC(N)=O)NC(=O)[C@@H](NC(=O)[C@H](C)NC(=O)[C@@H]1CSSC[C@H](NC(=O)[C@@H](N)CCCCNC(=O)CC[C@H](NC(=O)CC[C@H](NC(=O)CCCCCCCCCCCCCCCCCCC(=O)O)C(=O)O)C(=O)O)C(=O)N[C@@H](CC(N)=O)C(=O)N[C@@H]([C@@H](C)O)C(=O)N[C@@H](C)C(=O)N[C@@H]([C@@H](C)O)C(=O)N1)[C@@H](C)O)C(=O)N1CCC[C@H]1C(=O)N[C@@H](CO)C(=O)N[C@@H](CO)C(=O)N[C@H](C(=O)N[C@@H](CC(N)=O)C(=O)N[C@H](C(=O)NCC(=O)N[C@@H](CCCNC(=N)N)C(=O)N[C@@H](CCC(=O)O)C(=O)N[C@H](C(=O)N[C@@H](Cc1ccc(O)cc1)C(N)=O)[C@@H](C)O)C(C)C)[C@@H](C)O
notes: modifications are with respect to human amylin
B3: N^ε1-[(4S)-4-carboxy-4-[[(4S)-4-carboxy-4-(19-carboxynonadecanoylamino)butanoyl]amino]butanoyl]-[Glu14,Arg17,Pro21,Pro27,Pro34,Arg35]-h-amylin (peptide)
peptide: K([γGlu-γGlu-C20 diacid])CNTATCATQRLAEFLRHSSPNFGAIPSSTNVGPRTY-NH2
modifications: disulfide 2-7; N-terminus assumed
SMILES: CC[C@H](C)[C@H](NC(=O)[C@H](C)NC(=O)CNC(=O)[C@H](Cc1ccccc1)NC(=O)[C@H](CC(N)=O)NC(=O)[C@@H]1CCCN1C(=O)[C@H](CO)NC(=O)[C@H](CO)NC(=O)[C@H](Cc1c[nH]cn1)NC(=O)[C@H](CCCNC(=N)N)NC(=O)[C@H](CC(C)C)NC(=O)[C@H](Cc1ccccc1)NC(=O)[C@H](CCC(=O)O)NC(=O)[C@H](C)NC(=O)[C@H](CC(C)C)NC(=O)[C@H](CCCNC(=N)N)NC(=O)[C@H](CCC(N)=O)NC(=O)[C@@H](NC(=O)[C@H](C)NC(=O)[C@@H]1CSSC[C@H](NC(=O)[C@@H](N)CCCCNC(=O)CC[C@H](NC(=O)CC[C@H](NC(=O)CCCCCCCCCCCCCCCCCCC(=O)O)C(=O)O)C(=O)O)C(=O)N[C@@H](CC(N)=O)C(=O)N[C@@H]([C@@H](C)O)C(=O)N[C@@H](C)C(=O)N[C@@H]([C@@H](C)O)C(=O)N1)[C@@H](C)O)C(=O)N1CCC[C@H]1C(=O)N[C@@H](CO)C(=O)N[C@@H](CO)C(=O)N[C@H](C(=O)N[C@@H](CC(N)=O)C(=O)N[C@H](C(=O)NCC(=O)N1CCC[C@H]1C(=O)N[C@@H](CCCNC(=N)N)C(=O)N[C@H](C(=O)N[C@@H](Cc1ccc(O)cc1)C(N)=O)[C@@H](C)O)C(C)C)[C@@H](C)O
notes: modifications are with respect to human amylin; also called compound 110
B4: N^ε1-[(4S)-4-carboxy-4-[[(4S)-4-carboxy-4-(19-carboxynonadecanoylamino)butanoyl]amino]butanoyl]-[Glu14,Arg17,Pro21,Pro27,Pro34,Phe37]-h-amylin (peptide)
peptide: K([γGlu-γGlu-C20 diacid])CNTATCATQRLAEFLRHSSPNFGAIPSSTNVGPNTF-NH2
modifications: disulfide 2-7; N-terminus assumed
SMILES: CC[C@H](C)[C@H](NC(=O)[C@H](C)NC(=O)CNC(=O)[C@H](Cc1ccccc1)NC(=O)[C@H](CC(N)=O)NC(=O)[C@@H]1CCCN1C(=O)[C@H](CO)NC(=O)[C@H](CO)NC(=O)[C@H](Cc1c[nH]cn1)NC(=O)[C@H](CCCNC(=N)N)NC(=O)[C@H](CC(C)C)NC(=O)[C@H](Cc1ccccc1)NC(=O)[C@H](CCC(=O)O)NC(=O)[C@H](C)NC(=O)[C@H](CC(C)C)NC(=O)[C@H](CCCNC(=N)N)NC(=O)[C@H](CCC(N)=O)NC(=O)[C@@H](NC(=O)[C@H](C)NC(=O)[C@@H]1CSSC[C@H](NC(=O)[C@@H](N)CCCCNC(=O)CC[C@H](NC(=O)CC[C@H](NC(=O)CCCCCCCCCCCCCCCCCCC(=O)O)C(=O)O)C(=O)O)C(=O)N[C@@H](CC(N)=O)C(=O)N[C@@H]([C@@H](C)O)C(=O)N[C@@H](C)C(=O)N[C@@H]([C@@H](C)O)C(=O)N1)[C@@H](C)O)C(=O)N1CCC[C@H]1C(=O)N[C@@H](CO)C(=O)N[C@@H](CO)C(=O)N[C@H](C(=O)N[C@@H](CC(N)=O)C(=O)N[C@H](C(=O)NCC(=O)N1CCC[C@H]1C(=O)N[C@@H](CC(N)=O)C(=O)N[C@H](C(=O)N[C@@H](Cc1ccccc1)C(N)=O)[C@@H](C)O)C(C)C)[C@@H](C)O
notes: as for B2
B5: N^ε1-[(4S)-4-carboxy-4-[[(4S)-4-carboxy-4-(19-carboxynonadecanoylamino)butanoyl]amino]butanoyl]-[Glu14,Arg17,Pro21,Pro27,His34,Glu35]-h-amylin (peptide)
peptide: K([γGlu-γGlu-C20 diacid])CNTATCATQRLAEFLRHSSPNFGAIPSSTNVGHETY-NH2
modifications: disulfide 2-7; N-terminus assumed
SMILES: CC[C@H](C)[C@H](NC(=O)[C@H](C)NC(=O)CNC(=O)[C@H](Cc1ccccc1)NC(=O)[C@H](CC(N)=O)NC(=O)[C@@H]1CCCN1C(=O)[C@H](CO)NC(=O)[C@H](CO)NC(=O)[C@H](Cc1c[nH]cn1)NC(=O)[C@H](CCCNC(=N)N)NC(=O)[C@H](CC(C)C)NC(=O)[C@H](Cc1ccccc1)NC(=O)[C@H](CCC(=O)O)NC(=O)[C@H](C)NC(=O)[C@H](CC(C)C)NC(=O)[C@H](CCCNC(=N)N)NC(=O)[C@H](CCC(N)=O)NC(=O)[C@@H](NC(=O)[C@H](C)NC(=O)[C@@H]1CSSC[C@H](NC(=O)[C@@H](N)CCCCNC(=O)CC[C@H](NC(=O)CC[C@H](NC(=O)CCCCCCCCCCCCCCCCCCC(=O)O)C(=O)O)C(=O)O)C(=O)N[C@@H](CC(N)=O)C(=O)N[C@@H]([C@@H](C)O)C(=O)N[C@@H](C)C(=O)N[C@@H]([C@@H](C)O)C(=O)N1)[C@@H](C)O)C(=O)N1CCC[C@H]1C(=O)N[C@@H](CO)C(=O)N[C@@H](CO)C(=O)N[C@H](C(=O)N[C@@H](CC(N)=O)C(=O)N[C@H](C(=O)NCC(=O)N[C@@H](Cc1c[nH]cn1)C(=O)N[C@@H](CCC(=O)O)C(=O)N[C@H](C(=O)N[C@@H](Cc1ccc(O)cc1)C(N)=O)[C@@H](C)O)C(C)C)[C@@H](C)O
notes: as for B2
B6: N^ε1-[(4S)-4-carboxy-4-[[(4S)-4-carboxy-4-(19-carboxynonadecanoylamino)butanoyl]amino]butanoyl]-[Glu14,Arg17,Pro21,Pro27,Pro34,His35]-h-amylin (peptide)
peptide: K([γGlu-γGlu-C20 diacid])CNTATCATQRLAEFLRHSSPNFGAIPSSTNVGPHTY-NH2
modifications: disulfide 2-7 (inferred)
notes: as for B2

Each binder was assayed against T1, human amylin receptor (Amylin 3(a) receptor: human calcitonin receptor co-expressed with RAMP-3) (human, UniProt P30988 25-474; O60896 24-148, limits assumed) (assay: SPA competition binding, displacement of 125I-rat amylin from membranes of BHK cells with human calcitonin receptor + RAMP-3 (Assay V)).
T1 construct: whole, on cells; Used as cell membranes prepared from the Amylin 3(a)/CRE-luc BHK cells (Assay V); the complex is called the human amylin receptor; also called hAmylin-R; hAmylinR
T1 sequence (looked up) 1: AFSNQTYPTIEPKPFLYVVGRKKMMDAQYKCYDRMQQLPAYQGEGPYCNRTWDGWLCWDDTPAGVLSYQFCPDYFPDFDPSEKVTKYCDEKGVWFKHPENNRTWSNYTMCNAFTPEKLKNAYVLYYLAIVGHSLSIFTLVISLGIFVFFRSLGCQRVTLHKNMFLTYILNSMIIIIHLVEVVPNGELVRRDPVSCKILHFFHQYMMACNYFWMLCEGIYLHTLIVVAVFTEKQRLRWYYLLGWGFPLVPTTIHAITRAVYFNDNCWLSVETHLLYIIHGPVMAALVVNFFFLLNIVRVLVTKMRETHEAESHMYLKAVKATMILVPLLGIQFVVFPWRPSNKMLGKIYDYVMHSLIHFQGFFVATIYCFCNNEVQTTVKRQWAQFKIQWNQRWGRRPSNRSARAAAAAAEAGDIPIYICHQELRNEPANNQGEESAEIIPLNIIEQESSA
T1 sequence (looked up) 2: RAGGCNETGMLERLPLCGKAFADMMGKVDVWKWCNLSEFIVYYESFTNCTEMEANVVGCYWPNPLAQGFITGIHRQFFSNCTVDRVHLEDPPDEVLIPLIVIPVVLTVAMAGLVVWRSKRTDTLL
In short: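 SPA beads with BHK Amylin 3(a)/CRE-luc cell membranes (35 ng/μL final) in 50 mM Hepes pH 7.4, 1 mM CaCl2, 5 mM MgCl₂, 0.1% OA, 0.02% Tween20.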

| Binder | IC50 |
| --- | --- |
| B1 | 365 pM |
| B2 | 957 pM |
| B3 | 326 pM |
| B4 | 152 pM |
| B5 | 525 pM |
| B6 | 377 pM |
